B1: ATGL (PNPLA2, patatin-like phospholipase domain-containing protein 2), human, full length / perilipin-1, mouse (mPlin1) (parent)
chain 1: MFPREKTWNISFAGCGFLGVYYVGVASCLREHAPFLVANATHIYGASAGALTATALVTGVCLGEAGAKFIEVSKEARKRFLGPLHPSFNLVKIIRSFLLKVLPADSHEHASGRLGISLTRVSDGENVIISHFNSKDELIQANVCSGFIPVYCGLIPPSLQGVRYVDGGISDNLPLYELKNTITVSPFSGESDICPQDSSTNIHELRVTNTSIQFNLRNLYRLSKALFPPEPLVLREMCKQGYRDGLRFLQRNGLLNRPNPLLALPPARPHGPEDKDQAVESAQAEDYSQLPGEDHILEHLPARLNEALLEACVEPTDLLTTLSNMLPVRLATAMMVPYTLPLESALSFTIRLLEWLPDVPEDIRWMKEQTGSICQYLVMRAKRKLGRHLPSRLPEQVELRRVQSLPSVPLSCAAYREALPGWMRNNLSLGDALAKWEECQRQLLLGLFCTNVAFPPEALRMRAPADPAPAPADPASPQHQLAGPAPLLSTPAPEARPVIGALGL
chain 2: MSMNKGPTLLDGDLPEQENVLQRVLQLPVVSGTCECFQKTYNSTKEAHPLVASVCNAYEKGVQGASNLAAWSMEPVVRRLSTQFTAANELACRGLDHLEEKIPALQYPPEKIASELKGTISTRLRSARNSISVPIASTSDKVLGATLAGCELALGMAKETAEYAANTRVGRLASGGADLALGSIEKVVEFLLPPDKESAPSSGRQRTQKAPKAKPSLVRRVSTLANTLSRHTMQTTAWALKQGHSLAMWIPGVAPLSSLAQWGASAAMQVVSRRQSEVRVPWLHNLAASQDESHDDQTDTEGEETDDEEEEEESEAEENVLREVTALPNPRGLLGGVVHTVQNTLRNTISAVTWAPAAVLGTVGRILHLTPAQAVSSTKGRAMSLSDALKGVTDNVVDTVVHYVPLPRLSLMEPESEFRDIDNPSAEAERKGSGARPASPESTPRPGQPRGSLRSVRGLSAPSCPGLDDKTEASARPGFLAMPREKPARRVSDSFFRPSVMEPILGRAQYSQLRKKS
B2: ATGL (PNPLA2, patatin-like phospholipase domain-containing protein 2), human, full length / CIDEC (FSP27), human (parent)
chain 1: B1 chain 1
chain 2: MEYAMKSLSLLYPKSLSRHVSVRTSVVTQQLLSEPSPKAPRARPCRVSTADRSVRKGIMAYSLEDLLLKVRDTLMLADKPFFLVLEEDGTTVETEEYFQALAGDTVFMVLQKGQKWQPPSEQGTRHPLSLSHKPAKKIDVARVTFDLYKLNPQDFIGCLNVKATFYDTYSLSYDLHCCGAKRIMKEAFRWALFSMQATGHVLLGTSCYLQQLLDATEEGQPPKGKASSLIPTCLKILQ

Variants of B1 are the subject of the first assay. Kind of assay: LUMIER: Protein A-ATGL variant and firefly luciferase-partner co-expressed in HEK293T, lysates immunoprecipitated on IgG-coated plates, co-precipitated partner measured as luciferase luminescence. The conditions noted are these: with perilipin-1, mouse (mPlin1), transient co-transfection, IgG-coated LUMITRAC plates, 2 h at 4 °C, three PBS washes, Bright-Glo luciferase reagent, triplicates per assay, two …, parent: 0.26, not graded, scale: log2 fold change of co-immunoprecipitated luminescence relative to wild-type ATGL within each experiment.
Turning to chain 1 H109E, the screen value is -0.442.
As for chain 1 V127L, the screen value is -0.304.
chain 1 L178A: the screen value was -0.664.
Regarding chain 1 N39E, the screen value is -0.0832.
Regarding chain 1 P103K, the screen value is -1.36.
Turning to chain 1 A104E, the screen value was -1.07.

The assay is the same for the next values; noted with them: with perilipin-1, mouse (mPlin1), transient co-transfection, IgG-coated LUMITRAC plates, 2 h at 4 °C, three PBS washes, Bright-Glo luciferase reagent, triplicates per assay, two …, parent: -0.37, not graded, scale: log2 fold change of co-immunoprecipitated luminescence relative to wild-type ATGL within each experiment.
In the case of chain 1 H109E, the screen value was -0.386.
On the same count and under the same terms, the result for chain 1 V127L reads -0.288; that for chain 1 N39E, -0.558; that for chain 1 P103K, -0.898.
For the variant chain 1 A104E, the screen value was -0.823.

The assay is the same for the next values; noted with them: with perilipin-1, mouse (mPlin1), transient co-transfection, IgG-coated LUMITRAC plates, 2 h at 4 °C, three PBS washes, Bright-Glo luciferase reagent, triplicates per assay, two …, parent: -0.37, not graded, value at the no-binding floor (a bound), scale: log2 fold change of co-immunoprecipitated luminescence relative to wild-type ATGL within each experiment.
For chain 1 L178A, the screen value is -1.6.

The next assay covers variants of B2. The description is as above. The settings on record: with CIDEC (FSP27), transient co-transfection, IgG-coated LUMITRAC plates, 2 h at 4 °C, three PBS washes, Bright-Glo luciferase reagent, triplicates per assay, two …, parent: 0.17, not graded, scale: log2 fold change of co-immunoprecipitated luminescence relative to wild-type ATGL within each experiment.
On to chain 1 A104E, for which the screen value was -0.0649.
As to chain 1 R351L, the screen value was -0.353.
Consider chain 1 K275A, for which the screen value is -0.673.
For chain 1 Q140A, the screen value was determined as 0.722.
Turning to chain 1 Q140K, the screen value is -0.161.
Consider chain 1 V328A, for which the screen value was 0.302.
Regarding chain 1 G153K, the screen value was -0.57.
Same read-out and setting: the result for chain 1 G153A reads -0.268.
Regarding chain 1 L178A, the screen value was -0.204.
Consider chain 1 T41A, for which the screen value amounted to 0.105.
The same measure, in the same setting: the figure for chain 1 P86K is 0.081.
On to chain 1 F348E, for which the screen value was -0.409.
Turning to chain 1 R113K, the screen value was -0.11.
Turning to chain 1 R113L, the screen value was -0.719.
The same measure, in the same setting: the result for chain 1 E125L reads -0.231; that for chain 1 R163K, 0.652.
Consider chain 1 L102K, for which the screen value was -0.128.
On to chain 1 L159A, for which the screen value is -0.648.
Consider chain 1 V127L, for which the screen value is -0.166.
On to chain 1 N180L, for which the screen value was -0.529.
For chain 1 S87A, the screen value is -0.0562.
On the same count and under the same terms, the result for chain 1 S87E reads -0.478.
Same read-out and setting: the figure for chain 1 G189E is -0.952; for chain 1 P156K it is -0.723; for chain 1 L261E it is -0.713.
Turning to chain 1 A434L, the screen value is -0.034.
With chain 1 N39E, the screen value was 0.129.
The same measure, in the same setting: the figure for chain 1 A453E is 0.56; for chain 1 H109E it is -0.00157; for chain 1 G16K it is 0.534.
On to chain 1 L62K, for which the screen value was -0.0341.
In the case of chain 1 L62A, the screen value was -0.111.
Consider chain 1 I70K, for which the screen value is -0.434.
For chain 1 I70A, the screen value was -0.118.
On to chain 1 E368A, for which the screen value was -0.223.
Same read-out and setting: the figure for chain 1 P258L is -0.89; for chain 1 E314A it is -0.691; for chain 1 S158E it is -0.309.
As for chain 1 S158A, the screen value was -0.128.
On the same count and under the same terms, the figure for chain 1 Y415A is -0.411.
In the case of chain 1 P103K, the screen value was -0.241.
With chain 1 S106K, the screen value is -0.0703.
As for chain 1 G66A, the screen value was -0.0355.
chain 1 G66L: the screen value stood at 0.197.
In the case of chain 1 K92L, the screen value is -0.0227.
On to chain 1 R329E, for which the screen value was determined as 0.201.
Consider chain 1 R95K, for which the screen value was -0.0915.
As for chain 1 R95L, the screen value is -0.169.
Still for that read-out and setting: the result for chain 1 Q396A reads 0.0352.
chain 1 G59L: the screen value is 0.339.
Consider chain 1 F35E, for which the screen value is 0.312.
Regarding chain 1 F35A, the screen value was found to be 0.00149.

Still in this assay, the particulars now being: with CIDEC (FSP27), transient co-transfection, IgG-coated LUMITRAC plates, 2 h at 4 °C, three PBS washes, Bright-Glo luciferase reagent, triplicates per assay, two …, parent: 0.24, not graded, scale: log2 fold change of co-immunoprecipitated luminescence relative to wild-type ATGL within each experiment.
As to chain 1 A104E, the screen value is -0.317.
As to chain 1 R351L, the screen value was -0.407.
Take chain 1 K275A: the screen value is -0.64.
chain 1 Q140A: the screen value was 0.0209.
chain 1 Q140K: the screen value was determined as 0.485.
Take chain 1 V328A: the screen value is -0.193.
Take chain 1 G153K: the screen value is -0.174.
For the variant chain 1 G153A, the screen value came out at 0.00164.
chain 1 L178A: the screen value is -0.645.
For chain 1 T41A, the screen value is -0.176.
Take chain 1 P86K: the screen value is -0.642.
On to chain 1 F348E, for which the screen value was -0.389.
Still for that read-out and setting: the figure for chain 1 R113K is 0.829; for chain 1 R113L it is 0.537; for chain 1 E125L it is -0.238.
On to chain 1 R163K, for which the screen value stood at 0.0551.
For the variant chain 1 L102K, the screen value was -0.319.
On to chain 1 L159A, for which the screen value turned out to be 0.00161.
On the same count and under the same terms, the result for chain 1 V127L reads -0.0792; that for chain 1 N180L, -0.574; that for chain 1 S87A, -0.798.
Take chain 1 S87E: the screen value was -0.728.
For the variant chain 1 G189E, the screen value is -0.896.
Take chain 1 P156K: the screen value is -0.374.
For chain 1 L261E, the screen value is -0.796.
For the variant chain 1 A434L, the screen value amounted to 0.729.
chain 1 N39E: the screen value was -0.0276.
Take chain 1 A453E: the screen value was 0.847.
On to chain 1 H109E, for which the screen value was -0.00996.
The same measure, in the same setting: the figure for chain 1 G16K is 0.954; for chain 1 L62K it is 0.845.
Same read-out and setting: the result for chain 1 L62A reads -0.17; that for chain 1 I70K, -0.623; that for chain 1 I70A, -0.628.
On to chain 1 E368A, for which the screen value is -0.54.
On the same count and under the same terms, the result for chain 1 P258L reads -0.788.
On the same count and under the same terms, the result for chain 1 E314A reads -0.29.
chain 1 S158E: the screen value is -0.238.
On the same count and under the same terms, the figure for chain 1 S158A is 0.0569; for chain 1 Y415A it is -0.266.
The same measure, in the same setting: the result for chain 1 P103K reads -0.421; that for chain 1 S106K, -0.113; that for chain 1 G66A, -0.0837.
chain 1 G66L: the screen value was -0.656.
Still for that read-out and setting: the figure for chain 1 K92L is 0.785; for chain 1 R329E it is -0.13.
With chain 1 R95K, the screen value is -0.656.
For the variant chain 1 R95L, the screen value worked out at 0.507.
Take chain 1 Q396A: the screen value is -0.182.
With chain 1 G59L, the screen value was -0.00561.
With chain 1 F35E, the screen value was 0.00116.
Consider chain 1 F35A, for which the screen value is -0.0902.

These data come from publication PMC10958042.
